In the nanobody polyreactivity screen of Harvey et al. (2022):

Assay: yeast display, Sf9 membrane polyspecificity reagent, FACS + sequencing; frameworks hold sequencing errors
Method in brief: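 After 36–48 hours of galactose induction, yeast (Saccharomyces cerevisiae BJ5465) displaying a synthetic nanobody library were stained at 4 °C for 1 hour with 10% biotinylated, detergent-solubilized Sf9 membrane reagent. Streptavidin microbeads enriched the stained cells before FACS sorting into low and high (top ~1%) gates on anti-HA and streptavidin fluorescence. Each clone's polyreactivity label reflects its gate of origin.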

| Sequence | polyreactivity (PSR sort gate) |
| --- | --- |
| QVQLVESGGGLVQAGGSLRLSCAASGSTFGTYAMGWNRQATWKERELVAAITYSTGNTYYADSVKGRFTISRDNAKNNVYLQMNSLKPEDTAVYYCALEFGYYYFWMDYWGQGTQVTVSS | high polyreactivity |
| QVQLVESGGGLVQAGGSLRLSCAASGSTFGTYAMGWYRKAPGKERELVAAISTGGSTYYADSVKGRFTISRDNAKNTVYLQMNSLKPEDTAVYYCAALADYVRRASEYWGQGTQVTVSS | high polyreactivity |
| QVQLVESGGGLVQAGGSLRLSCAASGSTFGTYAMGWYRQATGKERELVAAISRGVSTYYADSVKGRFTISRDKAKNTVYLEMNSLKPEDTAVYYCAADPFWQTVYVYYTYSGTSYYWGQGTQVTVSS | low polyreactivity |
| QVQLVESGGGLVQAGGSLRLSCAASGSTFGVNAMGWYRPAPGKERELVAAITYSGGSTYYADSVKGRFTISRDNAKNTVYLQMNSLKPEDTAVYYCATTWYFVASWYVAIYDYWGQGTQVTVSS | low polyreactivity |
| QVQLVESGGGLVQAGGSLRLSCAASGSTFGVNAMGWYRQAPGKERELVAAIRWSDGSTYYADSVKGRFTISRDNAKNTVYLQMNSLKPEDTAVYYCNTDLTVYFPVEYWGQGTQVTVSS | low polyreactivity |
| QVQLVESGGGLVQAGGSLRLSCAASGSTFGVNAMGWYRQAPGKERELVAAISSSGSSTYADSVKGRFTISRDYAKNTVYLQMNSLKPEYTGVYYCNKTTLLTVEYDYWGQGPQVTVSS | low polyreactivity |
| QVQLVESGGGLVQAGGSLRLSCAASGSTFGVNAMGWYRQAPGKERELVATISRGTSTNYADSVKGRFTISRDNAKNTVYLQMHSLKPEDTAVYYCAKRVFYPGAYRYYYWGQGTQVTVSS | high polyreactivity |
| QVQLVESGGGLVQAGGSLRLSCAASGSTFGVNVMGWYRQAPGKERELVDAISRSGGRTYYADSVKGRFTISRDNAKNTVYLQMNSLKPEDTAVYYCNTRGYDYWGQGTQVTVSS | high polyreactivity |
| QVQLVESGGGLVQAGGSLRLSCAASGSTFGVYAMGWYRQAPGKERELVAAISESGGNTYYADSVKGRFTISRDNAKNTVYLQLNSLKPEDPAVYYCNTDVVVVHYIQAYYWGQGTQVTVSS | low polyreactivity |
| QVQLVESGGGLVQAGGSLRLSCAASGSTFGVYAMGWYRQAPGKERELVAAISKRGGSTYYADSVKGRFTISRDNAKNTVYLQMNSLKPEDTAVYYCAAGARGLYDYWGQGTQVTVSS | high polyreactivity |
| QVQLVESGGGLVQAGGSLRLSCAASGSTFGVYAMGWYRQAPGKERELVAAISSSTGSTYYADSVKGRFTISRDNAMNSVYLQMNSLKPEDTAVYYCDAAGYGKVLGDYWGQGTLVTVSS | low polyreactivity |
| QVQLVESGGGLVQAGGSLRLSCAASGSTFGVYAMGWYRQAPGKERELVASISSRGRTKYADSVKGSFTISRDNAKNTVYLQMIRLKPEDTAFYYCAARIRYLGVRDNDNYYWGQGTQVTVSS | low polyreactivity |
| QVQLVESGGGLVQAGGSLRLSCAASGSTFGWNAMGWYRQAPGKERELVAAISSSGGITYYADSVKGRFTISRDNAKNTVYLQMNSLKPEDSAVYYCAAERDDDWVNYWGQGTQVTVSS | low polyreactivity |
| QVQLVESGGGLVQAGGSLRLSCAASGSTFGWYAIGWNRQAPGKERELVAAINSDGSTYYADSVKGRFTISRDNAKNNVYLQMNSLKPEDPAVYYCATDDALYGYLYHNYGYWGEGTQVTVSS | low polyreactivity |
| QVQLVESGGGLVQAGGSLRLSCAASGSTFGWYAMGGYRQAPGKERELVAAISASGGATYYADSVKGRFTISRDNAKNTVYLQMNSLKPEDTAVYYCAAVRYPNWYDYWGQGTQVTVSS | high polyreactivity |
| QVQLVESGGGLVQAGGSLRLSCAASGSTFGWYAMGWYRQAPGKEREFVAAIRGGGSSTYYADSVKGRFTISRDNAKNTVYFQMNSLKPEDTAVYYCAAVTSQLYGNRYYYWGQGTQVTVSS | high polyreactivity |
| QVQLVESGGGLVQAGGSLRLSCAASGSTFGWYAMGWYRQAPGKERELVAAISNSGGSTYYADSVKGRFTISRDNAKNTVYLQMNSLKPEDTAVYYCATYHTTSYYQLVFDYWGQGTQVTVSS | low polyreactivity |
| QVQLVESGGGLVQAGGSLRLSCAASGSTFGWYAMGWYRQAPGKERELVASISSGGSTNYADSVKGRFTISRDNAKNTVYLQMNSLKPEDTAVYYCAARGGYWWYRYGYWGQGTQVTVSS | high polyreactivity |
| QVQLVESGGGLVQAGGSLRLSCAASGSTFGWYTMGWYRQAPGKERELVAAMTSRGTRTSYADSVKGRFTISRDNAKNTVYLQMNSLKPEDTAVYYCAARVFRGLGEYYWGQGTQVTVSS | high polyreactivity |
| QVQLVESGGGLVQAGGSLRLSCAASGSTFGYNAMGWYRQAPGKERELVAAINFRSDRTFYADSVKGRFTISRDNAKNTVYLQMNSLKPEDTAVYYCAAKPTTYYGNSDYWGQGTQVTVSS | high polyreactivity |
| QVQLVESGGGLVQAGGSLRLSCAASGSTFGYNAMGWYRQAPGKERELVAAISYSGGSTSYADSVKGRFTISRDNAKNIVYLQMNSLKPEDTAVYYCARDSYSQYSSQALEGYGYWGQGTQVTVSS | low polyreactivity |

| Sequence | polyreactivity (PSR sort gate) |
| --- | --- |
| QVQLVESGGGLVQAGGSLRLSCAASGSTFGYNAMGWYRQAPGKERELVADITARGGSTYYADSVKGRFTISRANAKNTVYLQMNSLKPEVTAVYYCAARRKRFYYYAGYDYWGQGTQVTVSS | high polyreactivity |
| QVQLVESGGGLVQAGGSLRLSCAASGSTFGYNAMGWYRQAPGKERELVARITSSGGSTYYADSVKGRFTISRDNAKNTVYLQMNSLKPEDTAVYYCAAGYLSGNYARYGYWGQGTQVTVSS | high polyreactivity |
| QVQLVESGGGLVQAGGSLRLSCAASGSTFGYNAMGWYRQAPGKERELVATITSTGGGTYYADSVKGRFTISRDNAKNTVYLQMNSLKPEDTAVYYCAAVYYSLDYVHGYPPHYDYWGQGTQVTVSS | low polyreactivity |
| QVQLVESGGGLVQAGGSLRLSCAASGSTFGYNAMGWYRQATGKERELVARITSSGGSTYYADSVKGRFTISRDNAKNTVYLQMNILKPEDTAVYYCAAGYLSGNYARYGYWGQGTQVTVSS | high polyreactivity |
| QVQLVESGGGLVQAGGSLRLSCAASGSTFGYNAMGWYRQSPGKERELVAAISYSGGSTYYADSVKGRFTISRDNAKNTVYLLMNSLKPEDTAVYYCAKETNRVGRYHWGQGTQVNVSS | low polyreactivity |
| QVQLVESGGGLVQAGGSLRLSCAASGSTFGYNTMGWYRQAPGKERELVAAITSGGRTYYADSVKGRFTISRDNAKNTVYLQMNILKPEDTAVYYCAAYYWWGYPENDYWGQGTQVTVSS | high polyreactivity |
| QVQLVESGGGLVQAGGSLRLSCAASGSTFGYYAMGWSRQAPGKERELVAAIRWSGGSTYADSVKGRFTISRDNAKNTVYLQMNSLKPEDTAVYYCAQYRWYGSVLGGYWGQGTQVTVSS | high polyreactivity |
| QVQLVESGGGLVQAGGSLRLSCAASGSTFGYYAMGWYRQAPGKERELVAAIRYSGGTTYYADSVKGRFTISRDNAKNTVYLQMNSLKPEDTAVYYCAAVYTSGYYYWGQGTQVTVSS | high polyreactivity |
| QVQLVESGGGLVQAGGSLRLSCAASGSTFGYYAMGWYRQAPGKERELVAAISWSGTRTYYADSVKGRFTISRDNAKNTVYLQMNSLKPEDTAVYYCAVRISRPREYYYWGQGTQVTVSS | high polyreactivity |
| QVQLVESGGGLVQAGGSLRLSCAASGSTFGYYAMGWYRQAPGKERELVAAISYRSGSTYYADSVKGRFTISRDNAKNTVYLQMNSLKPEDTAVYYCAAVIQGQQRYEYWGQGTQVTVSS | high polyreactivity |
| QVQLVESGGGLVQAGGSLRLSCAASGSTFGYYAMGWYRQAPGKERELVAAISYSGGSTYYADSVKGRFTISRDNAKNTVYLQMNSLKPEDTAVYYCAARLTRQMYYWGQGTQVTVSS | high polyreactivity |
| QVQLVESGGGLVQAGGSLRLSCAASGSTFGYYAMGWYRQAPGKERELVAAITRRSGRTYYADSVKGRFTISRDNAKNTVYLQMNSLKPEDTAVYYCNKVYPTYYYYRGGPTEYDYWGQGTQVTVSS | high polyreactivity |
| QVQLVESGGGLVQAGGSLRLSCAASGSTFGYYTMGWYSQAPGKEWELVAAITWSGGSTYYADSVKGRFTISRDNAKNTASLQMNSLKPEDTAVYYCNTDQDLVRSYDYWGQGTQVTVSS | low polyreactivity |
| QVQLVESGGGLVQAGGSLRLSCAASGSTFHAYAMGWYRQAPGKERELVAGISWSGGDTTYADSVKGRFTISGDNAKNTVYLQMNSLKPEDTAVYYCAAAGRDPDNYLILNYWGQGTQVTVSS | low polyreactivity |
| QVQLVESGGGLVQAGGSLRLSCAASGSTFHGYAMGWYRQEPGKERELVAAITSGDSTNYADSVKGRFTISRDNAKNTVYLQMNSLKPEDTAVYYCNAEGSSVLTGYWGYPPYWDTYDYWGQGTQVTVSS | low polyreactivity |
| QVQLVESGGGLVQAGGSLRLSCAASGSTFHNYAMGWYRQAPGKERELVAGISVRGGGTYYADSVKGRFTISRDNAKNTVYLQMNSLKPEDTAVYYCAKRSRYYYRYDYWGQGTQVTVSS | high polyreactivity |
| QVQLVESGGGLVQAGGSLRLSCAASGSTFHPNAMGWYRQAPVKERELVAAISRGGSTNYADSVKGRFTISRDNAKNTVYLQMISLKPEDSAVYYCAKDFFGISSDPVVMDYWGQGTQVTVSS | low polyreactivity |
| QVQLVESGGGLVQAGGSLRLSCAASGSTFHRNAMGWYRQAPGKERELVAAISFSGGRTYYADSVKGRFTISRDNAKNTVYLQMNSLKPEDTAVYYCAAVTASPGSYPDDYWGQGTQVTVSS | low polyreactivity |
| QVQLVESGGGLVQAGGSLRLSCAASGSTFHRNAMGWYRQAPGKERELVASISIGGSTNYADSVKGRYTISRDNAKNTVYLQMNSLKPEDTAVYYCATEPNPRRPRVDYDYWGQGTQVTVSS | low polyreactivity |
| QVQLVESGGGLVQAGGSLRLSCAASGSTFHRYAMGWYRQAPGKERELVATINLNTGSTYADSVKGRFTISRDNAKNTVYLQMNSLKPEDTAVYYCAAYGRWPFTWYNYWGQGTQVTVSS | low polyreactivity |
